Data reported in publication PMC10226596, “The ethylene-responsive transcription factor PpERF9 represses PpRAP2.4 and PpMYB114 via histone deacetylation to inhibit anthocyanin biosynthesis in pear”.

B1: ProMYB114-probe (dsDNA)
DNA 1: GCTTGCCGTCTTTGTCGTCTCCGGCGCCGCCATCTACATCTGCTTCCAGGTTCAAC
DNA 2: GTTGAACCTGGAAGCAGATGTAGATGGCGGCGCCGGAGACGACAAAGACGGCAAGC
B2: ProACS1-probe (dsDNA)
DNA 1: GAAAAATAGAGGAGAAAAATGGCCGACAAAATTAGTTGTGGCTACTAGAGTCAAGAAG
DNA 2: CTTCTTGACTCTAGTAGCCACAACTAATTTTGTCGGCCATTTTTCTCCTCTATTTTTC

Key:
PpRAP2.4 [1] = target: T1, PpRAP2.4 (Pyrus (pear, 'Hongzaosu'?), UniProt A0A5N5HQM7 1-356); experiment: EMSA; 3 ug protein; cold competitor 10-, 50-, 200-fold; LightShift Chemiluminescent EMSA Kit (Thermo Scientific); buffer, salt, pH and temperature not stated; details: protein: recombinant; tags: His (pET32a); label: 3' biotin (hot probe); blunt
T1 sequence (A0A5N5HQM7 entry or part of it): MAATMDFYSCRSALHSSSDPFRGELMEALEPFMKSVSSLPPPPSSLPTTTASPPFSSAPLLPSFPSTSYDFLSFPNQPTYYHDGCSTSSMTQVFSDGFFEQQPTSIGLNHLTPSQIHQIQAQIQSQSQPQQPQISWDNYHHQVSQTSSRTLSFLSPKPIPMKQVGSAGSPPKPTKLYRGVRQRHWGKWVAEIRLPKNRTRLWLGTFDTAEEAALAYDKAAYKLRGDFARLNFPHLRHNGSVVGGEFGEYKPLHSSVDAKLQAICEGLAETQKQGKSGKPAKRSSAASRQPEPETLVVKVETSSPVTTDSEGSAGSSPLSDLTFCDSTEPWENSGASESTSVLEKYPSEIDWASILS

PpRAP2.4 [2] = target: T1, PpRAP2.4; experiment: EMSA; cold competitor 50-, 100-, 200-fold; LightShift Chemiluminescent EMSA Kit (Thermo Scientific); buffer, salt, pH and temperature not stated; details: protein: recombinant; tags: His (pET32a); label: 3' biotin (hot probe); blunt

Binder | binding result (PpRAP2.4 [1]) | binding result (PpRAP2.4 [2])
B1 | binds | 
B2 |  | binds
